Results on eight molecules are retold here after US20200407433A1 (REMD BIOTHERAPEUTICS, published 2020).

In test [1] the target is T1, human Calcitonin Gene-Related Peptide (CGRP) (human, not fully specified).
T1 peptide: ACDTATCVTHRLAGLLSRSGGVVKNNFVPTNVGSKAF
Briefly: cell-based or functional assay.

The target of test [2] is T1, human Calcitonin Gene-Related Peptide …. Nature of the test: SPR Biacore 8k; antibody amine-coupled to chip, CGRP as analyte. The protocol: The recombinant IgGs secreted to the medium and were purified using protein A affinity chromatography. Evaluating from the SDS-PAGE, the purity of humanized IgGs were all over 90%. The affinities of purified antibodies binding to CGRP were determined using a Surface Plasmon Resonance (SPR) biosensor, Biacore 8k. Antibodies were immobilized on the sensor chip through amine coupling method. Antigen CGRP was used as the analyte. The data of dissociation (kd) and association (ka) rate constants were obtained using Biacore 8k evaluation software. The equilibrium dissociation constants (KD) were calculated from the ratio of kd over ka.

Test [3] shares this target. Briefly: ELISA, human CGRP binding. On the technique in general: An ELISA detects its analyte on a solid surface through an enzyme-linked reagent.
The target is the same in test [4]. Briefly: cell-based or functional assay.
Test [5] concerns the target T2, Rodent CGRP (rodent (murine)).
T2 construct: also called murine CGRP
Nature of the test: ELISA, rodent CGRP binding.

Test [6] has as its target T1, human Calcitonin Gene-Related Peptide …. Nature of the test: SPR Biacore T200; antibody amine-coupled to chip, CGRP as analyte. As to the method: The binding affinity between the chimeric IgG4 to antigen CGRP was determined using a Surface Plasmon Resonance (SPR) biosensor, Biacore T200 (GE Healthcare). 30B8G9B11 (“A3”) and chimeric IgG4 were each immobilized on the sensor chip through an amine coupling method. Antigen CGRP protein was used as analyte. The data of dissociation (kd) and association (kₐ) rate constants were obtained using Biacore T200 evaluation software. The equilibrium dissociation constants (KD) were calculated from the ratio of kd over kₐ.

T2 sequence (Q99JA0 83-119): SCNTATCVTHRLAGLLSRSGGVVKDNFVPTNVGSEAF

B1: REMD 128 (antibody, human IgG4 S228P, kappa, V domains shown)
VH: QVQLVQSGAEVVKPGASVKVSCKASGYTFTDYYMNWVKQAPGQGLEWIGDVNPNNGGTHYNQKFKGRVTLTVDTSISTAYMELSRLRSDDTAVYYCASITIVPVYFDFWGQGTLVTVSS
VL: DIQLTQSPSFLSASVGDRVTITCKASQNVGPNVAWYRQKPGKAPKALIYSASYRYSGVPSRFSGSGSGTEFTLTISSLQPEDFATYICQQYNYYPYTFGQGTKLEIKR
notes: Humanized full-length IgG (IgG4 constant region, kappa); also called IgG 10 (H3/L2); 10 (H3/L2)
The term Kd denotes the equilibrium constant for the complex coming apart. Broadly, the koff is the first-order rate constant of dissociation. By kon is commonly meant the rate constant with which the complex forms. For B1, the “SK-N-MC IC50 (pM)” value in test [1] turned out to be 49.2 pM. In test [2], the Kd came to 1.37 pM, the koff was 5.79e-06 s⁻¹ and the kon came out at 4.23e+06 M⁻¹ s⁻¹.

B2: REMD 128.1 (antibody, human IgG4 S228P, kappa, V domains shown)
VH: QVQLVQSGAEVVKPGASVKVSCKASGYTFTDYYMNWVKQAPGQGLEWIGDVNPNNGGTHYNQKFKGRVTLTVDTSISTAYMELSRLRSDDTAVYYCASITIVPVYFDFWGQGTLVTVSS
VL: DIQLTQSPSFLSTSVGDRVTITCKASQNVGPNVAWYRQKPGKSPKALIYSASYRYSGVPSRFSGSGSGTEFTLTISSLQPEDFATYICQQYNYYPYTFGQGTKLEIKR
notes: Humanized full-length IgG (IgG4 constant region, kappa); also called IgG 11 (H3/L3); 11 (H3/L3)
B2: the “SK-N-MC IC50 (pM)” value in test [1] amounted to 38.9 pM. Moreover, in test [2], the equilibrium dissociation constant (Kd) was 1.57 pM, the koff worked out at 7.61e-06 s⁻¹ and the kon was determined as 4.86e+06 M⁻¹ s⁻¹.

B3: REMD 128.2 (antibody, human IgG4 S228P, kappa, V domains shown)
VH: QVQLVQSGAEVVKPGASVKISCKASGYTFTDYYMNWVKQAPGQGLEWIGDVNPNNGGTHYNQKFKGRATLTVDTSISTAYMELSRLRSDDTAVYYCASITIVPVYFDFWGQGTLLTVSS
VL: DIQLTQSPSFLSTSVGDRVTITCKASQNVGPNVAWYRQKPGKSPKALIYSASYRYSGVPSRFSGSGSGTEFTLTISSLQPEDFATYICQQYNYYPYTFGQGTKLEIKR
notes: Humanized full-length IgG (IgG4 constant region, kappa); also called IgG 15 (H4/L3); 15 (H4/L3)
B3: in test [1], the “SK-N-MC IC50 (pM)” value came to 60.4 pM. Besides, in test [2], the Kd was determined as 1.52 pM, the koff turned out to be 7.57e-06 s⁻¹ and the kon amounted to 4.97e+06 M⁻¹ s⁻¹.

B4: REMD 128.3 (antibody, human IgG4 S228P, kappa, V domains shown)
VH: QVQLVQSGAEVVKPGASVKISCKASGYTFTDYYMNWVKQAPGQGLEWIGDVNPNNGGTHYNQKFKGRATLTVDTSISTAYMELSRLRSDDTAVYYCASITIVPVYFDFWGQGTLLTVSS
VL: DIQLTQSPSFLSASVGDRVTITCKASQNVGPNVAWYRQKPGKAPKALIYSASYRYSGVPSRFSGSGSGTEFTLTISSLQPEDFATYICQQYNYYPYTFGQGTKLEIKR
notes: Humanized full-length IgG (IgG4 constant region, kappa); also called IgG 14 (H4/L2); 14 (H4/L2)
Consider B4, for which, in test [1], the “SK-N-MC IC50 (pM)” value amounted to 59.8 pM. In addition, in test [2], the Kd was found to be 1.54 pM, the dissociation rate constant (koff) was found to be 7.01e-06 s⁻¹ and the kon came out at 4.55e+06 M⁻¹ s⁻¹.

B5: murine mAb 30B8G9B11 (antibody, mouse IgG2a, V domains shown)
VH: EVQLQQSGPELVKPGASVKISCKASGYTFTDYYMNWVKQSHGKSLEWIGDVNPNNGGTHYNQKFKGKATLTVDKSSSTAYMELRSLTSEDSAVYYCASITIVPVYFDFWGQGTTLTVSS
VL: DIVMTQSQKFMSTSVGDRVSVTCKASQNVGPNVAWYRQKPGQSPKALIYSASYRYSGVPDRFTGSGSGTDFTLTISNVQSEDLADYICQQYNYYPYTFGGGTKLEIK
notes: Murine IgG2a, kappa; also called A3; Murine A3
As a reminder, the EC50 is the concentration giving half of the maximal effect. In the case of B5, the “SK-N-MC IC50 (pM)” value in test [1] was 152 pM. In addition, in test [3], the EC50 amounted to 0.07 nM. Further, the “SK-N-MC CGRP IC50 (pM)” value in test [4] is 152 pM. Also, in test [5], the response was half-maximal at 0.296 nM (EC50). Besides, in test [6], the Kd was 2.92 pM, the dissociation rate constant (koff) came out at 1.56e-05 s⁻¹ and the kon is 5.33e+06 M⁻¹ s⁻¹.

B6: murine mAb 6G5C8C4 (antibody, mouse IgG2a, V domains shown)
VH: EVQLQQSGPELVKPGASVKISCKASGYTFTDYYMNWVKQSHGKSLEWIGDINPNNGGTTYNQKFKGKATLTVDKSSTTAYMELRSLTSEDSAVYYCAVITIVPYYFDYWGQGTTLTVSS
VL: DIVMTQSQKFMSTSVGDRVSVTCKASQNVGSNVAWYQQKPGQSPKALIYSASFRYSRVPDRFSGSGSGTDFTLTISNVQSEDLADYFCQQYNSYPYTFGAGTKLELK
notes: Murine IgG2a, kappa; also called A1; 6G5C8C4 ("A1")
In the case of B6, the EC50 in test [3] turned out to be 0.1 nM; in test [5] it was 0.361 nM. Also, the “SK-N-MC CGRP IC50 (pM)” value in test [4] was determined as 101 pM.

B7: murine mAb 24G7B10G2 (antibody, mouse IgG2a, V domains shown)
VH: EVQLLQSGPELMKPGTSVKISCKASGYTFTDYYMNWVKQSHGKSLEWIGDVNPNNGDTTYNQKFKGKATLTIDKSSSTAYMELRSLTSEDSAVYYCASITIVPLYFDFWGQGTTLAVSS
VL: DIVMTQSQKFMSTSVGDRVSVTCKASQNVGINVAWYQQKPGQSPKALLYSASYRYSGVPDRFTGSGSGTDFTLTISNVKSGDLAEYFCQQYNTYPYTFGGGTKLEIK
notes: Murine IgG2a, kappa; also called A2; 24G7B10G2 ("A2")
For B7, the EC50 is 0.08 nM in test [3] and 0.328 nM in test [5]. Further, the “SK-N-MC CGRP IC50 (pM)” value in test [4] worked out at 195 pM.

B8: murine-human chimeric IgG4 derived from murine antibody A3 (antibody, V domains shown)
VH: EVQLQQSGPELVKPGASVKISCKASGYTFTDYYMNWVKQSHGKSLEWIGDVNPNNGGTHYNQKFKGKATLTVDKSSSTAYMELRSLTSEDSAVYYCASITIVPVYFDFWGQGTTLTVSS
VL: DIVMTQSQKFMSTSVGDRVSVTCKASQNVGPNVAWYRQKPGQSPKALIYSASYRYSGVPDRFTGSGSGTDFTLTISNVQSEDLADYICQQYNYYPYTFGGGTKLEIKR
notes: also called chimeric antibody
B8: the “SK-N-MC IC50 (pM)” value in test [1] is 152 pM. In addition, in test [2], the Kd came out at 3.53 pM, the koff amounted to 1.19e-05 s⁻¹ and the kon worked out at 3.37e+06 M⁻¹ s⁻¹. Further, in test [6], the Kd was 2.4 pM, the koff was 1.51e-05 s⁻¹ and the association rate constant (kon) was 6.28e+06 M⁻¹ s⁻¹.
